{"source": "paper PMC11790970", "key": {"Asp85": {"target": "Asp85 (UniProt position 98, WARYADWLFTT)", "conditions": "cited from earlier work"}, "[1]": {"target": "actinorhodopsin from Rhodoluna lacicola strain MWH-Ta8 (Rhodoluna lacicola strain MWH-Ta8)", "test": "cryo-EM structure; single particle analysis, 2D classification, 4 Å projection structure from 53,376 particles; protein purified in 0.25% (w/v) Cymal-5, 2.5 mg/mL"}, "[2]": {"target": "actinorhodopsin from Rhodoluna lacicola strain MWH-Ta8 (Rhodoluna lacicola strain MWH-Ta8)", "test": "SEC; Superdex 200 Increase 10/300 GL; 20 mM BTP-HCl pH 7.5, 150 mM NaCl, 0.25% (w/v) Cymal-5; sample at about 0.75-1.5 mg/mL; column calibrated with molecular weight markers"}, "Asp97": {"test_system": "Asp97", "conditions": "cited from earlier work"}, "Asp92 (position 92, …)": {"target": "Asp92 (position 92, …)", "test": "UV-vis", "conditions": "not stated (pH adjusted at room temperature), 150 mM NaCl plus 100 mM acetate buffer, with residual HEPES-NaOH from a 5 mM stock diluted 5-fold, Detergent-solubilised, retinal-bound oligomeric RlActR at 0.2 mg/mL, whether the sample was light- or dark-adapted is not stated"}}, "data": [{"molecule": "Bacteriorhodopsin (BR) (Halobacterium salinarum)", "values": [{"measurement": "pKa", "setting": "Asp85", "value": "∼2.6"}]}, {"molecule": "actinorhodopsin from Rhodoluna lacicola strain MWH-Ta8 (natural protein)", "values": [{"measurement": "stoichiometry N", "setting": "[1]", "value": 5}, {"measurement": "stoichiometry N", "setting": "[2]", "value": 5}]}, {"molecule": "Green-light absorbing proteorhodopsin (GPR) (uncultured marine gamma-proteobacterium)", "values": [{"measurement": "pKa", "setting": "Asp97", "value": "∼7.5"}]}, {"molecule": "Actinorhodopsin RlActR (Rhodoluna lacicola (strain MWH-Ta8)) (protein) MNTLSNALDNGQFNLVYNILSLGIASMLFTAIFLFVARERVLPRYRIAVMVSATVTAIAAYHYFRMFDNFSHAFAGAENNPDAYNVGYRYVDWLLTVPLLLVELVAVLALAKAAQSSILNRLVPAAAAMIVLGYPGDAKLDIWGIAPSVWGLLSTIPFLYILYVLFIELGKSLSRQSEAVQKKVKILRLLLIATWGVYPITFILAMGTPPGAPFNASEFVAREVGYSIADILAKCLFGLIIYSIARIKSAEDDKEFAKAEFKDALEGHHHHH", "values": [{"measurement": "pKa", "setting": "Asp92 (position 92, …)", "value": 5.6}]}]}
